Patent US20070081998A1 (published 2007)

Key:
biotin-Aβ1-20 = biological target: T1, biotin-Aβ1-20 (UniProt P05067 672-691, not fully specified; biotin (site not stated)); experiment: BIACORE
T1 construct: domain: Aβ1-20; BIACORE antigen standing for monomeric Aβ peptide; also called biotinylated-Aβ1-20
T1 peptide (looked up): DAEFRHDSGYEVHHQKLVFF

[1] = biological target: biotinylated ADDL (bADDL) (UniProt P05067 672-713, N-terminal biotin); experiment: cell-based or functional assay
[2] = biological target: T2, Aβ-derived diffusible ligands (ADDLs) (UniProt P05067 672-713); experiment: ELISA; reference is binding of the same antibody to Aβ40 monomer
T2 construct: domain: Aβ1-42; Soluble oligomers of Aβ1-42
Experimental: Affinity maturation was carried out to improve affinity and improve preferential binding to ADDL. To evaluate ADDL binding affinity of the humanized antibodies, BIACORE™ and titration ELISAs were conducted as disclosed herein. Briefly, Streptavidin-coated, 96-well microtiter plates (Sigma, St. Louis, Mo.) were coated with 10% biotinylated ADDL antigen (1 μM). A series of 2-fold dilutions of purified antibody, starting at 500 ng/mL was added to the ADDL captured plates and the plates were incubated for 2 hours at 25° C. […] A rabbit anti-goat IgG (H+L) HRP-conjugated (Bethyl Laboratories, Inc., Montgomery, Tex.) detection antibody was then added at a 1/2000 dilution in blocking solution and incubated for 1 hour at room temperature. After washing with PBS, HRP substrate, 3,3′,5′5-tetramethylbenzidine (ready-to-use TMB; Sigma, St. Louis, Mo.) was added and the reaction was stopped after 10 minutes with 0.5 N H₂SO₄. Absorbance at wavelength of 450 nm was read in a plate reader (model VICTOR V; Perkin Elmer, Boston, Mass.) and data were processed using EXCEL® work sheet.

B1: Hu20C2A3 (veneered version of clone A3, IgG2m4 isotype) (antibody, V domains shown)
VH: QVTLKESGPGLLKPTQTLTLTCTLSGFSLSTSGMGVGWFRQPPGKGLEWLAHIWWDDDKSYNPSLKSRLTISKDTSKNQVVLTITNVDPVDTATYYCARRQLGTRGTDAMDYWGQGTTVTVSS
VL: DVVMTQTPLSLPVTPGQPASISCRSSQSILHSNGNTYLEWYLQKPGQSPQLLIYKVSNRFSGVPDRFSGSGSGTDFTLKISRVEAEDVGVYYCLQTTRVPLTFGQGTKLEIKR
notes: to be checked against the listing; also called Hu20C2A3 produced in CHO; Hu20C2A3 produced in Pichia
binding result (biotin-Aβ1-20): binds
inhibition of bADDL binding to primary hippocampal neurons (alkaline phosphatase-streptavidin luminescence) [1]: 0.16 antibody to peptide ratio
fold preference for ADDL binding versus Aβ40 monomer binding [2]: 6 fold
